We go through 1 substance from publication PMC6874091.

The experiment concerns the target 14-3-3 (endogenous, detected with a 14-3-3 antibody; isoform not told) (UniProt Q04917). Put plainly: anti-FLAG co-immunoprecipitation, western blot densitometry. The following applies: HeLa cells, transfected; mean ± SD of three experiments; read off a plot.
UniProt Q04917, sequence (Q04917 whole entry, canonical isoform): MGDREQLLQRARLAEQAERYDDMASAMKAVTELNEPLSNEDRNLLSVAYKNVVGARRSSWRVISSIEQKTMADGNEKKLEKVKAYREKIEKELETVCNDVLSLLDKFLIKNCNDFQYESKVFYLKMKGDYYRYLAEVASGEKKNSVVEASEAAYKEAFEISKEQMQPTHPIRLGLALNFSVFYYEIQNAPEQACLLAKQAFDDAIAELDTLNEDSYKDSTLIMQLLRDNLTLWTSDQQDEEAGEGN

For the substance “3xFLAG-BPLF1 (amino acid residues 1-235), catalytically active N-terminal deconjugase domain of the Epstein-Barr virus large tegument protein BPLF1 (from UniProt P03186) D86R; D90R”, the ratio to parent is 0.49.
